# According to patent US20190211071A1 (NATIONAL UNIVERSITY OF SINGAPORE, published 2019):
# Positions of bridges follow the written chain, without caps; N, C: chain ends. No end group written: not given here.
# T1: rat NPR-A (rat, UniProt P18910 29-1057)
# T1 sequence (looked up): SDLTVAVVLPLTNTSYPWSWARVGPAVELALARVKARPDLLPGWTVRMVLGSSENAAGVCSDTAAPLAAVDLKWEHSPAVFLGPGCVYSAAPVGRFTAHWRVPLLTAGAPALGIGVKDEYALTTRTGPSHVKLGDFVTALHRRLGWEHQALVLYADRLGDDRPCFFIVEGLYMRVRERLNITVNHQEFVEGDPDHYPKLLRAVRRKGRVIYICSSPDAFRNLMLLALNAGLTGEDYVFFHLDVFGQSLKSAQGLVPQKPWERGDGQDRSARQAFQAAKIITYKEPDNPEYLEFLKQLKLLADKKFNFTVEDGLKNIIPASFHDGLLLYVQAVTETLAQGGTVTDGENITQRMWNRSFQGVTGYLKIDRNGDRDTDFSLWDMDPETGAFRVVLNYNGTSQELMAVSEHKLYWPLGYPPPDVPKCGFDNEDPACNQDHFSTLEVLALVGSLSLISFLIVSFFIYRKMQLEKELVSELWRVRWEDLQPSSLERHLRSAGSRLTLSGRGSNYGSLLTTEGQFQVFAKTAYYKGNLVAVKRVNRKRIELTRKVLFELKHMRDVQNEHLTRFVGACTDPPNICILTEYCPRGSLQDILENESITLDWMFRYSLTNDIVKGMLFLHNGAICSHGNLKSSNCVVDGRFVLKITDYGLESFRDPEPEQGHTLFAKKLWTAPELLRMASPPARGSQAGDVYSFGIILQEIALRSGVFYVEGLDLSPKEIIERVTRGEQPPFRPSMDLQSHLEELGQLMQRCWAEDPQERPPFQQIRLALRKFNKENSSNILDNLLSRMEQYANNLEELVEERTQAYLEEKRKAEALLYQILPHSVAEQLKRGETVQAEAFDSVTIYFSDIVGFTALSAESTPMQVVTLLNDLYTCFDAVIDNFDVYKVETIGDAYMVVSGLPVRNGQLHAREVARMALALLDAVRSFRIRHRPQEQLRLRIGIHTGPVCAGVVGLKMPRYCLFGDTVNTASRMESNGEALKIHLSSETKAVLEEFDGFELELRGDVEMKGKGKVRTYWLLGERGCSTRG
# Legend:
# rat NPR-A [1] = molecular target: T1, rat NPR-A; experiment: cell-based or functional assay
# rat NPR-A [2] = molecular target: T1, rat NPR-A; experiment: cell-based or functional assay; remark: listed apart in the source
Binder,NPR-A activation potency IC50 (rat NPR-A [1]) [nM],NPR-A activation potency: Ratio compared ANP (rat NPR-A [1]) [ratio],NPR-A activation potency: Ratio compared wild type NPs (rat NPR-A [1]) [ratio],Rate of generation of cGMP (pmol cGMP/pmol peptide) (rat NPR-A [1]),Rate of generation of cGMP: Ratio compared ANP (rat NPR-A [1]) [ratio],Rate of generation of cGMP: Ratio compared wild type NPs (rat NPR-A [1]) [ratio],time to produce similar levels of cGMP (time-chase at EC50 concentration) (rat NPR-A [2]) [min],activation kinetics compared to K-Ring (rat NPR-A [2]) [fold],potency of cGMP response compared to K-Ring (rat NPR-A [2]) [fold]
SLRRSSCFDRRMDRIGAQSDLGCNSFRY (disulfide 7-23 (inferred)) [^DRDANP],45.2,2.6,2.6,0.38,21,21,,,
GLLISCFDRRIDRISHTSDIGCNSFRY (disulfide 6-22) [K-Ring^NSFRY],43.8,2.5,-5.6,0.31,25.7,13.6,,,
GLLISCFGRRIDRISHTSDIGCRH (disulfide 6-22) [^GRDK-Ring],50.7,2.9,-4.8,0.113,70.5,5,,,
GLLISCFDRRIDRISHTSGIGCRH (disulfide 6-22) [^DRGK-Ring],694,40.1,2.8,0.007,1140,3.2,,,
GLLISCFDRRIDRISHTSDIGCRH (disulfide 6-22) [K-Ring],244,14.1,1,0.0228,350,1,30,,
GLLISCFGRRIDRISHTSGIGCRH (disulfide 6-22) [^GRGK-Ring],87.7,5.1,-2.8,0.19,41.9,8.3,,3,4
SLRRSSCFDGRMDRIGAQSDLGCNSFRY (disulfide 7-23 (inferred)) [^DGDANP],135,7.8,7.8,0.14,56.9,56.9,,,
GLLISCFDGRIDRISHTSDIGCRH (disulfide 6-22) [^DGDK-Ring],866,50.1,3.6,0.005,1590,4.6,,,
